We go through two substances from patent publication US20200030425.

Where two headings read alike, the source gives them in different places. A value given as a limit tells only on which side of the number the result lay.

In experiment [1] the target is hCD32a-H131 (human) (UniProt P12318).
Experiment [2] concerns the target hCD16a-F158 (human) (UniProt P08637).
Experiment [3] has as its target hCD32a-H131 (human) (UniProt P12318). The source holds these as a separate data set.
The target of experiment [4] is hCD16a-F158 (human) (UniProt P08637). This is another data set of the same source.
hCD16a-F158 (human), sequence (P08637 17-208): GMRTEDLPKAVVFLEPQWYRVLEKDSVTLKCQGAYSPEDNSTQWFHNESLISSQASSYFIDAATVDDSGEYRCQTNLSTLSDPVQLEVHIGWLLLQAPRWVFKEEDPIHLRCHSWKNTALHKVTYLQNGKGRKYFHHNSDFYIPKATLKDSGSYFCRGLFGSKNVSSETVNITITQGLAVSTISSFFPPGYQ

hCD32a-H131 (human), sequence (P12318 34-217): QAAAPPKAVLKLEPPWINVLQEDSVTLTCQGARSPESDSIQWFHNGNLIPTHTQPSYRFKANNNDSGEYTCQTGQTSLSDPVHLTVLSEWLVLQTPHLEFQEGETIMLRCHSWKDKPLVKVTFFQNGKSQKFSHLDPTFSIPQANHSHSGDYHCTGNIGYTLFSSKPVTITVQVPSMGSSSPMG

The Kd is the concentration at which binding is half-saturated. Read a high Kd as weaker binding. For the substance IgG1f, the Kd with hCD32a-H131 (human) [1] is 530 µM; with hCD16a-F158 (human) [2] it was 200 µM.

As for IgG1f-S267E, the values for the Kd with hCD32a-H131 (human) [3] and in the experiment with hCD16a-F158 (human) [4] were 650 µM and greater than 5000 µM, respectively.
